From IntAct's records for PubMed 15716268

B1: NAD-dependent protein deacetylase sirtuin-1 (Mus musculus), Q923E4 (parent)
chain: MADEVALALQAAGSPSAAAAMEAASQPADEPLRKRPRRDGPGLGRSPGEPSAAVAPAAAGCEAASAAAPAALWREAAGAAASAEREAPATAVAGDGDNGSGLRREPRAADDFDDDEGEEEDEAAAAAAAAAIGYRDNLLLTDGLLTNGFHSCESDDDDRTSHASSSDWTPRPRIGPYTFVQQHLMIGTDPRTILKDLLPETIPPPELDDMTLWQIVINILSEPPKRKKRKDINTIEDAVKLLQECKKIIVLTGAGVSVSCGIPDFRSRDGIYARLAVDFPDLPDPQAMFDIEYFRKDPRPFFKFAKEIYPGQFQPSLCHKFIALSDKEGKLLRNYTQNIDTLEQVAGIQRILQCHGSFATASCLICKYKVDCEAVRGDIFNQVVPRCPRCPADEPLAIMKPEIVFFGENLPEQFHRAMKYDKDEVDLLIVIGSSLKVRPVALIPSSIPHEVPQILINREPLPHLHFDVELLGDCDVIINELCHRLGGEYAKLCCNPVKLSEITEKPPRPQKELVHLSELPPTPLHISEDSSSPERTVPQDSSVIATLVDQATNNNVNDLEVSESSCVEEKPQEVQTSRNVENINVENPDFKAVGSSTADKNERTSVAETVRKCWPNRLAKEQISKRLEGNQYLFVPPNRYIFHGAEVYSDSEDDVLSSSSCGSNSDSGTCQSPSLEEPLEDESEIEEFYNGLEDDTERPECAGGSGFGADGGDQEVVNEAIATRQELTDVNYPSDKS
partner: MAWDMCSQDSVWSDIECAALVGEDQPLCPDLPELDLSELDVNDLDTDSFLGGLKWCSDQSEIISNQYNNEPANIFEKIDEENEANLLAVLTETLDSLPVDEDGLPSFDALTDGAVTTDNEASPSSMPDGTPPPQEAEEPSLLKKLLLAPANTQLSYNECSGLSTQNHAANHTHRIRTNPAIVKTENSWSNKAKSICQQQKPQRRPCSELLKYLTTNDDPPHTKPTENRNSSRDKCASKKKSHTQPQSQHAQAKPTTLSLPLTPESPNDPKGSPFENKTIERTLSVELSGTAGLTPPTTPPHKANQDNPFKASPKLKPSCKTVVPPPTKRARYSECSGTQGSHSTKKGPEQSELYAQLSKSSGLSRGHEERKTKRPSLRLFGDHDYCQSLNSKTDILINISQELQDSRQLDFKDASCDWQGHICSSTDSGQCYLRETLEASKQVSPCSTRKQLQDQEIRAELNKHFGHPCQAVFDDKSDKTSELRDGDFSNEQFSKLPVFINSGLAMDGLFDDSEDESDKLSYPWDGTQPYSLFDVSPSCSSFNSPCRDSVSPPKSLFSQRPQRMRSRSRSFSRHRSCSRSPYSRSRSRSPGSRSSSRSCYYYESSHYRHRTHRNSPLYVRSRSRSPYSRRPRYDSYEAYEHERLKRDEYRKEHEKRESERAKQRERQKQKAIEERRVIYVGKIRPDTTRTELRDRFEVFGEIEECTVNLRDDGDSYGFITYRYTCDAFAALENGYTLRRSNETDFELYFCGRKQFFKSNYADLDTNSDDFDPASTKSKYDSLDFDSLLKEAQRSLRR

Variants of: B1
Conditions: with prgc1_mouse Ppargc1a

Variant | effect of a mutation on the interaction
G261A | decreasing interaction
